In patent publication US20220242936A1 (CHANGCHUN GENESCIENCE PHARMACEUTICAL, published 2022):

Experiments:
[1] = biological target: T1, Aβ1-42 polypeptide (human); test: ELISA EC50 on Aβ42 monomer, 2 ml transient transfection; table note: '-' means no combination; expression 61 mg/L
T1 construct: Synthetic peptide; also called Aβ1-42 monomer; Aβ monomer

[2] = biological target: T1, Aβ1-42 polypeptide; test: ELISA EC50 on Aβ42 monomer, 2 ml transient transfection; table note: '-' means no combination; expression 7.72 mg/L
[3] = biological target: T1, Aβ1-42 polypeptide; test: ELISA EC50 on Aβ42 monomer, 2 ml transient transfection; table note: '-' means no combination; expression 68.2 mg/L
[4] = biological target: T1, Aβ1-42 polypeptide; test: ELISA EC50 on Aβ42 monomer, 2 ml transient transfection; table note: '-' means no combination; expression 32.1 mg/L
[5] = biological target: T1, Aβ1-42 polypeptide; test: ELISA EC50 on Aβ42 monomer, 2 ml transient transfection; table note: '-' means no combination; expression 60 mg/L
[6] = biological target: T1, Aβ1-42 polypeptide; test: ELISA EC50 on Aβ42 monomer, 2 ml transient transfection; table note: '-' means no combination; expression 6.14 mg/L
[7] = biological target: T1, Aβ1-42 polypeptide; test: ELISA EC50 on Aβ42 monomer, 2 ml transient transfection; table note: '-' means no combination; expression 68.4 mg/L

T1 sequence (peptide, as listed by the source): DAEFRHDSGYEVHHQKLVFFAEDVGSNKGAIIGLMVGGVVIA

B1: 066-4.26.14H1L2 (antibody, human IgG1, V domains shown)
VH: EVQLVESGGGLVKPGGSLRLSCAASGFTFRSYAMSWVRQAPGKGLEWVASISTTSNTYYPDSVKGRFTTSRDNAKNSLYLQMNSLRAEDTAVYYCGRGVITNQAWFAYWGQGTLVTVSS
VL: DIVLTQSPATLSVSPGERATLSCRASQSISNNLHWYQQKPGQAPRLLIKYASQSISGIPARFSGSGSGTDFTLTISSLQSEDFAVYFCQQSNSWPLTFGGGTKVEIKR
notes: Humanized full-length antibody; human IgG1 heavy constant and human kappa light constant (vectors pGS003-hIgG1CH, pGS003-hIgKCL)
binding result [1]: no binding

B2: 066-4.26.14H2L4 (antibody, human IgG1, kappa, V domains shown)
VH: EVQLVESGGGLVKPGGSLRLSCAASGFTFRSYAMSWVRQTPEKRLEWVASISTTSNTYYPDSVKGRFTTSRDNAKNSVYLQMSSLRAEDTAVYYCGRGVITNQAWFAYWGQGTTVTVSS
VL: EIVLTQSPGTLSLSPGERATLSCRASQSISNNLHWYQQKPGQAPRLLIKYASQSISGIPDRFSGSGSGTDFTLTISRLEPEDFAVYYCQQSNSWPLTFGGGTKVEIKR
notes: as for B1
binding result [2]: no binding

B3: 066-4.26.14H1L3 (antibody, human IgG1, V domains shown)
VH: EVQLVESGGGLVKPGGSLRLSCAASGFTFRSYAMSWVRQAPGKGLEWVASISTTSNTYYPDSVKGRFTTSRDNAKNSLYLQMNSLRAEDTAVYYCGRGVITNQAWFAYWGQGTLVTVSS
VL: DIVLTQSPDFQSVTPKEKVTISCRASQSISNNLHWYQQKPDQSPKLLIKYASQSISGIPSRFSGSGSGTDFTLTINSLEAEDAAAYFCQQSNSWPLTFGPGTKVEIKR
notes: as for B1
binding result [3]: no binding

B4: 066-4.26.14H1L4 (antibody, human IgG1, V domains shown)
VH: EVQLVESGGGLVKPGGSLRLSCAASGFTFRSYAMSWVRQAPGKGLEWVASISTTSNTYYPDSVKGRFTTSRDNAKNSLYLQMNSLRAEDTAVYYCGRGVITNQAWFAYWGQGTLVTVSS
VL: EIVLTQSPGTLSLSPGERATLSCRASQSISNNLHWYQQKPGQAPRLLIKYASQSISGIPDRFSGSGSGTDFTLTISRLEPEDFAVYYCQQSNSWPLTFGGGTKVEIKR
notes: as for B1
binding result [4]: no binding

B5: 066-4.26.14H1L1 (antibody, human IgG1, V domains shown)
VH: EVQLVESGGGLVKPGGSLRLSCAASGFTFRSYAMSWVRQAPGKGLEWVASISTTSNTYYPDSVKGRFTTSRDNAKNSLYLQMNSLRAEDTAVYYCGRGVITNQAWFAYWGQGTLVTVSS
VL: DIVLTQSPATLSVSPGERVTLSCRASQSISNNLHWYQQKSGQAPRLLIKYASQSISGIPSRFSGSGSGTDFTLTISSLQSEDFAVYFCQQSNSWPLTFGGGTQVEIKR
notes: as for B1
binding result [5]: no binding

B6: 066-4.26.14H2L5 (antibody, human IgG1, kappa, V domains shown)
VH: EVQLVESGGGLVKPGGSLRLSCAASGFTFRSYAMSWVRQTPEKRLEWVASISTTSNTYYPDSVKGRFTTSRDNAKNSVYLQMSSLRAEDTAVYYCGRGVITNQAWFAYWGQGTTVTVSS
VL: EIVLTQSPDFQSVTPKEKVTITCRASQSISNNLHWYQQKPDQSPKLLIKYASQSISGVPSRFSGSGSGTDFTLTINSLEAEDAATYYCQQSNSWPLTFGQGTKVEIKR
notes: as for B1
binding result [6]: no binding

B7: 066-4.26.14H1L5 (antibody, human IgG1, V domains shown)
VH: EVQLVESGGGLVKPGGSLRLSCAASGFTFRSYAMSWVRQAPGKGLEWVASISTTSNTYYPDSVKGRFTTSRDNAKNSLYLQMNSLRAEDTAVYYCGRGVITNQAWFAYWGQGTLVTVSS
VL: EIVLTQSPDFQSVTPKEKVTITCRASQSISNNLHWYQQKPDQSPKLLIKYASQSISGVPSRFSGSGSGTDFTLTINSLEAEDAATYYCQQSNSWPLTFGQGTKVEIKR
notes: as for B1
binding result [7]: no binding
